Measured values published in paper PMC3956856, “Interaction of Kinase-Interaction-Motif Protein Tyrosine Phosphatases with the Mitogen-Activated Protein Kinase ERK2” (PLoS ONE, 2014).
Entries after “also recorded” stand apart in the source; their conditions may differ.

T1: STEP KIMKIS peptide (STEP residues 213-256) (mouse, UniProt P54830 213-256)
T1 construct: STEP (PTPN5), residues 213-256 (KIM and KIS); mouse is stated for the STEP 213-539 construct; source: synthetic peptide (Biosynthesis, Inc.), HPLC purified, >98% purity
T1 peptide (looked up): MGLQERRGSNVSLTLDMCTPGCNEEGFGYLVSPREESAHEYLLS

T2: STEPKIM peptide (STEP residues 213-229) (mouse, UniProt P54830 213-229)
T2 construct: STEP (PTPN5, striatal enriched protein tyrosine phosphatase), residues 213-229 (KIM); mouse is stated for the STEP 213-539 construct; source: synthetic peptide (Biosynthesis, Inc.), HPLC purified, >98% purity
T2 peptide (looked up): MGLQERRGSNVSLTLDM

T3: PTPSL KIMKIS (PTPSL residues 332-373) (human, UniProt Q15256 332-373)
T3 construct: PTPSL/PTPBR7 (PTPRR), residues 332-373 (KIM and KIS); human is stated for the PTPSL 332-655 construct; Recombinant, not synthetic; source: final SEC
T3 chain (looked up): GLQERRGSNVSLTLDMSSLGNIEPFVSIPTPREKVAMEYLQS

B1: extracellular signal-regulated kinase 2 (ERK2), unphosphorylated (enzyme, UniProt P63086 1-358, looked up)
chain: MAAAAAAGPEMVRGQVFDVGPRYTNLSYIGEGAYGMVCSAYDNLNKVRVAIKKISPFEHQTYCQRTLREIKILLRFRHENIIGINDIIRAPTIEQMKDVYIVQDLMETDLYKLLKTQHLSNDHICYFLYQILRGLKYIHSANVLHRDLKPSNLLLNTTCDLKICDFGLARVADPDHDHTGFLTEYVATRWYRAPEIMLNSKGYTKSIDIWSVGCILAEMLSNRPIFPGKHYLDQLNHILGILGSPSQEDLNCIINLKARNYLLSLPHKNKVPWNRLFPNADSKALDLLDKMLTFNPHKRIEVEQALAHPYLEQYYDPSDEPIAEAPFKFDMELDDLPKEKLKELIFEETARFQPGYRS
notes: ERK2 (extracellular signal-regulated kinase 2), unphosphorylated; also called MAPK; source: final SEC (Superdex 75 26/60)

Key:
[1] = target: T1, STEP KIMKIS peptide (STEP residues …); assay: ITC; ERK2 titrated into STEPKIM, PTPSL KIMKIS or STEP KIMKIS in the cell; 25 °C; 10 mM Tris pH 7.5, 150 mM NaCl, 0.1 mM EDTA, 0.5 mM TCEP; one-site model; triplicate; conditions: both partners purified
[2] = target: T2, STEPKIM peptide (STEP residues 213-229); assay: as above; conditions: both partners purified
[3] = target: T3, PTPSL KIMKIS (PTPSL residues 332-373); assay: as above; conditions: both partners purified
ERK2 [4] = target: T4, ERK2 (Rattus norvegicus, UniProt P63086); conditions: structural model from cross-linking, MS and molecular modeling; ref [24]; cited from earlier work
T4 construct: gene Mapk1; made in house
From the text: In this model, PTPSLCAT binds ERK2 in an orientation in which the catalytic site is positioned near the ERK2 phosphorylation loop. This is different from the p38 ... || Figure 3 Regulatory protein-MAPK interaction strengths. The binding strengths of each KIM-PTP (KIM peptides and KIM-containing MKBDs (in orange font), light blue; KIMKIS peptides, light purple; proteins, light pink) to p38α and ERK2 represented from weakest to tightest (largest Kd to smallest Kd) binding affinity; ‘^†’ indicates values previously published, [15], [17], [18]. KIM-PTP:MAPK complexes determined to be extended using SAXS written in normal text; KIM-PTP:MAPK complexes determined to be compact written in italics; *, compact nature of the ERK2-PTPSL complex determined by ...

ERK2 [5] = target: T4, ERK2; assay: SAXS of resting-state complexes with ERK2; conditions: ERK2:PTPSL complex; 50 mM HEPES pH 6.8, 150 mM NaCl, 5 mM dithiothreitol
ERK2 [6] = target: T4, ERK2; assay: Isothermal titration calorimetry with ERK2; assay type: binding
Procedure: The PTPSLKIM peptide (residues 331–348), STEPKIM (residues 213–229) and STEPKIMKIS (residues 213–256) were synthesized, HPLC purified and verified by mass spectrometry (MS) (>98% purity; Biosynthesis, Inc.). Expression and purification of ERK2 and PTPSLKIMKIS (residues 332–373) was carried out as previously described, [15]. PTPSL (residues 332–655, human), STEP (residues 213–539, mouse) and PSChimera (PTPSL residues 332–373 with STEP residues 257–539; gene synthesized by DNA 2.0) were expressed and purified using the protocol previously described in detail for STEPCAT (residues 244–539). The DUSP16 MAPK binding domain (residues 5–138, human) was expressed and purified as previously described. All purified proteins were stored at −80 °C until use at which point they were thawed and exchanged into the appropriate buffer using size exclusion chromatography (SEC; Superdex 75 26/60; GE Healthcare). The final protein buffer was dependent on the experiment performed. For ITC experiments, the final SEC purification was performed in ITC buffer (10 mM Tris pH 7.5, 150 mM NaCl, 0.1 mM EDTA, 0.5 mM TCEP); for SAXS experiments, the final SEC purification was performed in SAXS buffer (50 mM HEPES pH 6.8, 150 mM NaCl, 5 mM dithiothreitol). PTPSLKIM, STEPKIM and STEPKIMKIS peptides were solubilized in ITC buffer prior to ITC measurements.
ITC experiments were performed at 25 °C using a VP-ITC microcalorimeter (Microcal Inc.). Titrant (10 μL per injection) was injected into the sample cell over a period of 20 seconds with a 250 second interval between titrations to allow for complete equilibration and baseline recovery. 28 injections were delivered during each experiment and the solution in the sample cell was stirred at 307 rpm to ensure rapid mixing. To determine the thermodynamic parameters (ΔH, ΔS, ΔG) and binding constants (K) of the ERK2:PTPSLKIM, ERK2:PTPSL, ERK2:STEP and ERK2:PSChimera interactions, PTPSLKIM, PTPSL, STEP and PSChimera were titrated into ERK2. To determine the same parameters for the ERK2:STEPKIM, ERK2:PTPSLKIMKIS and ERK2:STEPKIMKIS interaction, ERK2 was titrated into the peptides. Titrants were chosen based on the amount of purified protein/peptide available for the experiment. For all titrations the concentrations were slightly varied to ensure independence of the Kd from the protein/peptide concentrations. Data were analyzed with a one-site binding model assuming a binding stoichiometry of 1∶1 using Origin 7.0 software. A nonlinear least-squares algorithm and the titrant and sample cell concentrations were used to fit the heat flow per injection to an equilibrium binding equation, providing values of the stoichiometry (n), change in enthalpy (ΔH) and binding constant (K). All data were repeated in triplicate.

[7] = target: B1; assay: ITC; PTPSLKIM, PTPSL, STEP or PSChimera titrated into ERK2 in the cell; 25 °C; 10 mM Tris pH 7.5, 150 mM NaCl, 0.1 mM EDTA, 0.5 mM TCEP; one-site model; triplicate; conditions: both partners purified
p38α = conditions: values previously published, ref [14], [15], [17], [18]; cited from earlier work
From the text: We used ITC measurements to determine the binding affinity of STEP and PTPSL for unphosphorylated ERK2 ( Table 1; Figure S1). […] This complex has a ∼3-times lower Kd (tighter binding) than the next tightest complex, ERK2:PTPSL, and a nearly 70-fold greater affinity than the weakest complex, p38α:HePTP [15]. Like STEP, PTPSL binds ERK2 more tightly (∼3.5-fold) than p38α. We also tested peptides that include the kinase specificity s ... || We also generated a chimeric protein in which we fused the PTPSLKIMKIS to STEPCAT (PSchimera; Figure 1A ). […] Thus, they only adopt a single conformation when they bind their respective MAPKs. This is different from the MAPK-binding domains (MKBD) of MAPK phosphatases (MKP; dual specificity phosphatases; DUSPs), [26]. In MKPs, the KIM sequence is part of a stable, folded domain and thus adopts a single, ordered conformation in both the unbound and MAPK-bound states, [28]. […] Our ... || (+ 1 further places)

Row | Molecule | dH [1] [kcal/mol] | dH [2] [kcal/mol] | dH [3] [kcal/mol] | shape of the ERK2:PTPSL resting-state complex (in words) (ERK2 [4]) | aggregation of the ERK2:PTPSL complex in SAXS samples (ERK2 [5]) | relative binding to ERK2 (in words) (ERK2 [6]; ERK2, ITC) | tighter binding to ERK2 than the PTPSLKIM peptide (ERK2 [6]; ERK2, ITC, versus PTPSLKIM) [times] | tighter binding to ERK2 than to p38α (fold difference in affinity) (ERK2 [6]; ITC Kd, ERK2 versus p38α) [fold] | affinity for ERK2 compared with p38α (in words) (ERK2 [6]; ITC, ERK2 versus p38α) | TΔS (ERK2 [6]; unphosphorylated ERK2, ITC, 25 °C, 10 mM Tris pH 7.5, 150 mM NaCl, 0.1 mM EDTA, 0.5 mM TCEP, average and standard deviation, triplicate) [kcal/mol] | Kd [7] [nM] | dH [7] [kcal/mol] | Kd (p38α) [nM]
1 | B1 | -29.2 | -27.9 | -21.6 |  |  |  |  |  |  |  |  |  | 
2 | PTPSL (residues 332-655, human) (domain or fragment, UniProt Q15256 332-655, looked up, PTPSL/PTPBR7 (PTPRR, PTP STEP-like), human, residues 332-655 (KIM, KIS and catalytic domain); The results loosely call this construct 'full-length PTPSL'; the construct is residues 332-655; also called PTPBR7; PTPRR; source: final SEC) GLQERRGSNVSLTLDMSSLGNIEPFVSIPTPREKVAMEYLQSASRILTRSQLRDVVASSHLLQSEFMEIPMNFVDPKEIDIPRHGTKNRYKTILPNPLSRVCLRPKNVTDSLSTYINANYIRGYSGKEKAFIATQGPMINTVDDFWQMVWQEDSPVIVMITKLKEKNEKCVLYWPEKRGIYGKVEVLVISVNECDNYTIRNLVLKQGSHTQHVKHYWYTSWPDHKTPDSAQPLLQLMLDVEEDRLASQGRGPVVVHCSAGIGRTGCFIATSIGCQQLKEEGVVDALSIVCQLRMDRGGMVQTSEQYEFVHHALCLYESRLSAET |  |  |  | compact, with ERK2 and PTPSL associating in a side-by-side manner | persistently exhibited the typical hallmarks of aggregation | more strongly than does HePTP | ~4 | ~3.5 | higher binding affinity for ERK2 than for p38α; also recorded: bind more strongly to ERK2 | -12.8 ± 2.1 | 108 | -22.3 | 382 ± 65
